# Columns and labels:
# [1] = biological target: T1, SLFN5 1-336 (Schlafen core domain) (Homo sapiens, UniProt Q08AF3 1-336); assay: fluorescence anisotropy; FA: 2x buffer 100 mM HEPES pH 8.0, 100 mM NaCl mixed 1:1 with 100 nM (final) FAM ligand, 30 min on ice; EMSA: 25 mM HEPES pH 7.0, 60 mM NaCl, 5% glycerol, 2 mM; conditions: protein: recombinant, tags: C-terminal His6
# T1 sequence: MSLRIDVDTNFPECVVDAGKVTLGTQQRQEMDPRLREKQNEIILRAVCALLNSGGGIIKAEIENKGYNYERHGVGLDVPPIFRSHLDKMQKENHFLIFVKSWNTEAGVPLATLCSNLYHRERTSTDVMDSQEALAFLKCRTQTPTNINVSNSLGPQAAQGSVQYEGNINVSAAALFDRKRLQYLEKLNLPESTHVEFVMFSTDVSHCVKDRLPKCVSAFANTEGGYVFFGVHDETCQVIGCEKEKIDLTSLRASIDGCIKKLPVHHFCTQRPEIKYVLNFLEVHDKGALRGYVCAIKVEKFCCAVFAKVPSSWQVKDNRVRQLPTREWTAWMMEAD
# SLFN5 full length [2] = biological target: T2, SLFN5 full length (Homo sapiens, UniProt Q08AF3 1-891); assay: competition EMSA; with tRNASer, 20 nM each; 196 bp DNA preferred; FA: 2x buffer 100 mM HEPES pH 8.0, 100 mM NaCl mixed 1:1 with 100 nM (final) FAM ligand, 30 min on ice; EMSA: 25 mM HEPES pH 7.0, 60 mM NaCl, 5% glycerol, 2 mM; conditions: protein: recombinant; tags: N-terminal double FLAG, HRV 3C site; label: 5'-Cy5 (rev primer); blunt
# T2 sequence: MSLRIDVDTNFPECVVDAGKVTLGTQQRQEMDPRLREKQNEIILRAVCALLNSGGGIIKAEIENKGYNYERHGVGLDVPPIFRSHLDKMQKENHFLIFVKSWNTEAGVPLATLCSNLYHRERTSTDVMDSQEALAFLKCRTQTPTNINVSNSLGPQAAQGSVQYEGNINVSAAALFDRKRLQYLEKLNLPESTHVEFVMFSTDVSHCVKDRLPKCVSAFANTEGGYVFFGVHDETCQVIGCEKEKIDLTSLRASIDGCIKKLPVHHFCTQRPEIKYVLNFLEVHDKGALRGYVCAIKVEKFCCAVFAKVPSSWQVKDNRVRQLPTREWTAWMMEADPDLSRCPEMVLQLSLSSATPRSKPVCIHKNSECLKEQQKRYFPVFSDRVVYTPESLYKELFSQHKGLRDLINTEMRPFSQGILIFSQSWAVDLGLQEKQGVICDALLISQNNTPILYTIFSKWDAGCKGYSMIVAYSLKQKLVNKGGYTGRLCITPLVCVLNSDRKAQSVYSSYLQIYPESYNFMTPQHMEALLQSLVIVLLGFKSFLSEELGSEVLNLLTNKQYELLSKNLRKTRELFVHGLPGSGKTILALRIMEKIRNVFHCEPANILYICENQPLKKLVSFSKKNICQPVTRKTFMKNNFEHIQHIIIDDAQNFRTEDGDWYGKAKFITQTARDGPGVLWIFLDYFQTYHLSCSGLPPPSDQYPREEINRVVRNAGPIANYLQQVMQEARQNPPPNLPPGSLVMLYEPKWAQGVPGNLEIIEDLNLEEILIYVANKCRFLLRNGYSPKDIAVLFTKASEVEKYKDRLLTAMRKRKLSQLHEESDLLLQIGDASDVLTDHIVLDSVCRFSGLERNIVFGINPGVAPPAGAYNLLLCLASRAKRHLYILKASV
# SLFN5 full length [3] = biological target: T2, SLFN5 full length; assay: competition EMSA; with tRNASer, 20 nM each; comparable affinities; FA: 2x buffer 100 mM HEPES pH 8.0, 100 mM NaCl mixed 1:1 with 100 nM (final) FAM ligand, 30 min on ice; EMSA: 25 mM HEPES pH 7.0, 60 mM NaCl, 5% glycerol, 2 mM; conditions: protein: recombinant; tags: N-terminal double FLAG, HRV 3C site; label: 5'-Cy5 (fwd); blunt
binder,measurement,setting,value
TTTTTTTTTTTTTTTTTTTTTTTTTTTTTT (ssDNA) [30 dT],Kd,[1]; label: 5'-FAM,11 µM
60 rU (ssRNA) RNA: UUUUUUUUUGCUUUUUUUUUUUUUUUUUUUUUUUUUUUUUUUUUUUUUUUUUUUUUUUUU,Kd,[1]; label: 5'-FAM,3.6 µM
196 bp DNA (0N49) (dsDNA) DNA 1: CTGGAGAATCCCGGTGCCGAGGCCGCTCAATTGGTCGTAGCAAGCTCTAGCACCGCTTAAACGCACGTACGCGCTGTCCCCCGCGTTTTAACCGCCAAGGGGATTACTCCCTAGTCTCCAGGCACGTGTCAGATATATACATCCTGTGCATGTATTGAACAGCGACCTTGCCGGTGCCAGTCGGATAGTGTTCCGA DNA 2: TCGGAACACTATCCGACTGGCACCGGCAAGGTCGCTGTTCAATACATGCACAGGATGTATATATCTGACACGTGCCTGGAGACTAGGGAGTAATCCCCTTGGCGGTTAAAACGCGGGGGACAGCGCGTACGTGCGTTTAAGCGGTGCTAGAGCTTGCTACGACCAATTGAGCGGCCTCGGCACCGGGATTCTCCAG,binding result,SLFN5 full length [2],binds
UUUUUUUUUUUUUUUUUUUUUUUUUUUUUU (ssRNA) [30 rU],Kd,[1]; label: 5'-FAM,5.1 µM
tRNA(Ser) (structured_RNA) RNA: GUAGUCGUGGCCGAGUGGUUAAGGCGAUGGACUUGAAAUCCAUUGUGGUUUCCCCGCGCAGGUUCGAAUCCUGCCGACUACGCCA,Kd,"[1]; label: 5'-FAM, tRNA fold",4.3 µM
50 bp DNA (dsDNA) DNA 1: AATTGGTCGTAGCAAGCTCTAGCACCGCTTAAACGCACGTACGCGCTGTC DNA 2: GACAGCGCGTACGTGCGTTTAAGCGGTGCTAGAGCTTGCTACGACCAATT,binding result,SLFN5 full length [3],binds
60 dT (ssDNA) DNA: TTTTTTTTTTTTTTTTTTTTTTTTTTTTTTTTTTTTTTTTTTTTTTTTTTTTTTTTTTTT,Kd,[1]; label: 5'-FAM,7.8 µM
60 bp DNA (60bp_A/T_GC) (dsDNA) DNA 1: TTTTTTTTTTTTTTTTTTTTTTTTTTTTTTTTTTTTTTTTTTTTTTTTTGCTTTTTTTTT DNA 2: AAAAAAAAAGCAAAAAAAAAAAAAAAAAAAAAAAAAAAAAAAAAAAAAAAAAAAAAAAAA,Kd,"[1]; label: 5'-FAM (fwd), blunt",2.5 µM

# — PMC8789055, “Structural and biochemical characterization of human Schlafen 5”
